Substitutions are numbered along the chain they refer to. Names and notes keep the numbering of the source. Where two headings read alike, the source gives them in different places.
T1: FcgRIIa R (human, UniProt P12318 34-217)
T1 construct: extracellular domain; also called FcγRIIa R; FcγRIIa type R
T1 sequence (looked up): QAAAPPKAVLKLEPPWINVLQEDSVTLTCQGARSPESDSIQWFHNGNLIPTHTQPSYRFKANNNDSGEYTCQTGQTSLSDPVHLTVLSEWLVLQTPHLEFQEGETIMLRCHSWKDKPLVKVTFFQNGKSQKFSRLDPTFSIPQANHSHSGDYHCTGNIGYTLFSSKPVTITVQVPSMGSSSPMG

T2: FcgRIIa H (human, UniProt P12318 34-217)
T2 construct: extracellular domain; also called FcγRIIa H; FcγRIIa type H
T2 sequence (looked up): T1 sequence (looked up) with R134H

T3: FcgRIIb (human, UniProt P31994 43-217)
T3 construct: extracellular domain; also called FcγRIIb; CD32B
T3 sequence (looked up): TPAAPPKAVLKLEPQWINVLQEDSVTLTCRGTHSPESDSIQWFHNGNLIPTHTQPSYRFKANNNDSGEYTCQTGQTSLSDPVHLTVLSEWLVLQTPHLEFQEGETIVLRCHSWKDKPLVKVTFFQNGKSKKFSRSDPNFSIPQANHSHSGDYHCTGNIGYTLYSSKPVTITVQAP

B1: H240-Kn061/H240-Hl134/L73-k0 (antibody, human IgG1, kappa)
heavy 1: QDQLVQSGAEVKKPGASVKVSCKASGFNIKDTYIQWVRQAPGQGLEWMGRIDPLRKQTKYREKFEGRVTITADTSTNTAYMELSSLRSEDTAVYYCVRSGREFDYWGQGTLVTVSSASTKGPSVFPLAPSSKSTSGGTAALGCLVKDYFPEPVTVSWNSGALTSGVHTFPAVLQSSGLYSLSSVVTVPSSSLGTQTYICNVNHKPSNTKVDKKVEPKSCDKTHTCPPCPAPEYYWGPSVFLFPPKPKDTLMISRTPEVTCVVVDVSDEDPEVKFNWYVDGVEVHNAKTKPREEQYNATYRVVSVLTVLHQDWLNGKEYKCKVSNKALPAPIEKTISKAKGQPREPQVCTLPPSRDELTKNQVSLWCLVKGFYPSDIAVEWESNGQPENNYKTTPPVLDSDGSFFLYSKLTVDKSRWQQGNVFSCSVMHEALHNHYTQKSLSLSP
heavy 2: B1 heavy 1 with C348Y, D355C, W365S, L367A, Y406V
light: DIQMTQSPSSLSASVGDRVTITCRASQDIHKYIAWYQQKPGQAPRLLIQYTSTLQPGVPSRFSGSGSGTDYTFTISSLQPEDIATYYCLQYEQLRTFGGGTKVEIKRTVAAPSVFIFPPSDEQLKSGTASVVCLLNNFYPREAKVQWKVDNALQSGNSQESVTEQDSKDSTYSLSSTLTLSKADYEKHKVYACEVTHQGLSSPVTKSFNRGEC
notes: Anti-epiregulin IgG1, knobs-into-holes; called homodimerized as both H chains carry L234Y/L235Y/G236W/H268D/S298A
B2: H240-Kn132/H240-Hl071/L73-k0 (antibody, human IgG1, kappa)
heavy 1: B1 heavy 1 with Y233L, Y234L, W235G, D267H, A297S, K325D, A329M, K333E
heavy 2: QDQLVQSGAEVKKPGASVKVSCKASGFNIKDTYIQWVRQAPGQGLEWMGRIDPLRKQTKYREKFEGRVTITADTSTNTAYMELSSLRSEDTAVYYCVRSGREFDYWGQGTLVTVSSASTKGPSVFPLAPSSKSTSGGTAALGCLVKDYFPEPVTVSWNSGALTSGVHTFPAVLQSSGLYSLSSVVTVPSSSLGTQTYICNVNHKPSNTKVDKKVEPKSCDKTHTCPPCPAPELLGGPSVFLFPPKPKDTLMISRTPEVTCVVVDVSHEDPEVKFNWYVDGVEVHNAKTKPREEQYNSTYRVVSVLTVLHQDWLNGKEYKCKVSNDALPMPIEETISKAKGQPREPQVYTLPPSRCELTKNQVSLSCAVKGFYPSDIAVEWESNGQPENNYKTTPPVLDSDGSFFLVSKLTVDKSRWQQGNVFSCSVMHEALHNHYTQKSLSLSP
light: B1 light
notes: Anti-epiregulin IgG1, knobs-into-holes; called homodimerized as both H chains carry K326D/A330M/K334E
B3: H240-Kn113/H240-Hl076/L73-k0 (antibody, human IgG1, kappa)
heavy 1: B1 heavy 1 with Y233E, Y234N, D269E
heavy 2: B2 heavy 2 with D269E
light: B1 light
notes: H240-Kn113: Y234E and Y235N introduced into H240-Kn072
B4: H240-Kn067/H240-Hl136/L73-k0 (antibody, human IgG1, kappa)
heavy 1: B1 heavy 1 with A326D
heavy 2: B1 heavy 1 with A326D, C348Y, D355C, W365S, L367A, Y406V
light: B1 light
notes: Called homodimerized: both H chains have L234Y/L235Y/G236W/H268D/S298A/A327D
B5: H240-Kn125/H240-Hl076/L73-k0 (antibody, human IgG1, kappa)
heavy 1: B1 heavy 1 with Y234Q, S238M, D269E
heavy 2: B2 heavy 2 with D269E
light: B1 light
notes: H240-Kn125: Y235Q and S239M introduced into H240-Kn072
B6: H240-Kn115/H240-Hl076/L73-k0 (antibody, human IgG1, kappa)
heavy 1: B1 heavy 1 with S238M, D269E
heavy 2: B2 heavy 2 with D269E
light: B1 light
notes: H240-Kn115: S239M introduced into H240-Kn072
B7: H240-Kn133/H240-Hl068/L73-k0 (antibody, human IgG1, kappa)
heavy 1: B2 heavy 2 with D269E, M329K, Y348C, C355D, S365W, A367L, V406Y
heavy 2: B2 heavy 2 with D269E, M329K
light: B1 light
notes: Called homodimerized: both H chains have D270E/K326D/A330K/K334E

How the values were obtained:
[1] = molecular target: T4, FcγRIIIa F extracellular domain with C-terminal His tag (human, UniProt P08637 17-208); test: SPR (Biacore), antibody captured on chip, soluble FcγR as analyte, 1:1 Langmuir fit
T4 construct: extracellular domain; Soluble receptor, F158 allotype; also called FcgRIIIa F; FcgRIIIaF; not shown: His tag at the C terminus
T4 sequence (P08637 17-208): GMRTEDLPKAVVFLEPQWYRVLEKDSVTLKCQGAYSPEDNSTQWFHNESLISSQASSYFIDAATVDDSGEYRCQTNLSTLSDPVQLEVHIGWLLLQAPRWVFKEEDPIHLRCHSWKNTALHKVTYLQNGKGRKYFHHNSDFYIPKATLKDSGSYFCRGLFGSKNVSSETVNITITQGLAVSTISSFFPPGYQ
Procedure: (§1) Specifically, H240-Hl134 (SEQ ID NO: 88) resulting from introduction of L234Y/L235Y/G236W/H268D/S298A into H240-Hl033 and H240-Kn132 (SEQ ID NO: 89) resulting from introduction of K326D/A330M/K334E into H240-Kn033 were constructed according to the method described in Reference Example 1.
(§2) Analysis of interaction between objective antibody and the FcγR was carried out using Biacore T100 (GE Healthcare), Biacore T200, Biacore A100, and Biacore 4000. HBS-EP+ (GE Healthcare) was used as the running buffer, and the measurement temperature was set to 25° C. Chips produced by immobilizing the antigen peptide by the amine coupling method to a Series S sensor Chip CM5 (GE Healthcare), chips produced by allowing preliminarily biotinylated antigen peptides to interact with and immobilize onto a Series S Sensor Chip SA (certified) (GE Healthcare), chips produced by immobilizing Protein L (ACTIGEN, BioVision) to Series S Sencor Chip CM5 (GE Healthcare), or chips produced by immobilizing Protein A/G (Thermo Scientific) to Series S Sencor Chip CM5 (GE Healthcare) were used. Antibodies of interest were captured onto these chips, and allowed to interact to each FcγR diluted with running buffer. To regenerate and repeatedly use the chip, the antibodies captured onto the chip were washed off by reacting 10 mM glycine-HCl, pH 1.5.

[2] = molecular target: T5, FcγRIIIa V extracellular domain with C-terminal His tag (human, UniProt P08637 17-208); test: as above
T5 construct: extracellular domain; Soluble receptor, V158 allotype; also called FcgRIIIa V; FcgRIIIaV; not shown: His tag at the C terminus
T5 sequence (P08637 17-208 F176V): as the sequence (P08637 17-208) above, with F160V counted along it
Procedure: as §1, §2

FcgRIa = molecular target: T6, FcgRIa (human, UniProt P12314 16-292); test: SPR (Biacore), antibody captured, FcgR as analyte
T6 construct: extracellular domain; also called FcγRIa; FcγRI
T6 sequence (P12314 16-292): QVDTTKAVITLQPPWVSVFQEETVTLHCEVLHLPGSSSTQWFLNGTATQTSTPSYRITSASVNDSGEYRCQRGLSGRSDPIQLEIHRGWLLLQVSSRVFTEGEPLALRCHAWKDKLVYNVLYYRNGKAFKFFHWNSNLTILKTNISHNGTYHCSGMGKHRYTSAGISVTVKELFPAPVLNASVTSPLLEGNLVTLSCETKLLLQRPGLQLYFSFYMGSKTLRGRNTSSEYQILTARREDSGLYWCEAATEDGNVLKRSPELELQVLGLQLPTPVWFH
Procedure: (§3) H240-Kn113 (SEQ ID NO: 92) resulting from introduction of Y234E and Y235N into H240-Kn072, H240-Kn115 (SEQ ID NO: 93) resulting from introduction of S239M into H240-Kn072, and H240-Kn125 (SEQ ID NO: 94) resulting from introduction of Y235Q and S239M into H240-Kn072 were prepared according to the method described in Reference Example 1. H240-Kn113/H240-Hl076/L73-k0, H240-Kn115/H240-Hl076/L73-k0, and H240-Kn125/H240-Hl076/L73-k0 were prepared by combining H240-Hl076 as an H chain, L73-k0 as the L chain, and H240-Kn113, H240-Kn115, and H240-Kn125 as the other H chain according to the method described in Reference Example 1.
as §2

FcgRIIa R [3] = molecular target: T1, FcgRIIa R; test: SPR (Biacore), antibody captured, FcgR as analyte
Procedure: as §3, §2

FcgRIIa H [4] = molecular target: T2, FcgRIIa H; test: SPR (Biacore), antibody captured, FcgR as analyte
Procedure: as §3, §2

FcgRIIb = molecular target: T3, FcgRIIb; test: SPR (Biacore), antibody captured, FcgR as analyte
Procedure: as §3, §2

FcgRIIIa F [5] = molecular target: T7, FcgRIIIa F (human, UniProt P08637 17-208); test: SPR (Biacore), antibody captured, FcgR as analyte
T7 construct: extracellular domain; polymorphic site made after J. Clin. Invest; also called FcγRIIIa F
T7 sequence (P08637 17-208): as the sequence (P08637 17-208) above
Procedure: as §3, §2

FcgRIIIa V [6] = molecular target: T8, FcgRIIIa V (human, UniProt P08637 17-208); test: SPR (Biacore), antibody captured, FcgR as analyte
T8 construct: extracellular domain; polymorphic site made after J. Clin. Invest; also called FcγRIIIa V
T8 sequence (P08637 17-208 F176V limits assumed): as the sequence (P08637 17-208) above, with F160V counted along it
Procedure: as §3, §2

FcgRIIa R [7] = molecular target: T1, FcgRIIa R; test: SPR (Biacore), antibody captured, FcgR as analyte; remark: listed apart in the source
Procedure: (§4) Then, H240-Hl136 (SEQ ID NO: 97) resulting from introduction of L234Y/L235Y/G236W/H268D/S298A/A327D into H240-Hl033 and H240-Kn133 (SEQ ID NO: 98) resulting from introduction of D270E/K326D/A330K/K334E into H240-Kn033 were constructed according to the method described in Reference Example 1.
as §2, with “buffer.” for “buffer. To regenerate and repeatedly use the chip, the antibodies captured onto the chip were washed off by reacting 10 mM glycine-HCl, pH 1.5.”

FcgRIIa H [8] = molecular target: T2, FcgRIIa H; test: SPR (Biacore), antibody captured, FcgR as analyte; remark: listed apart in the source
Procedure: as §4
as §2, with “buffer.” for “buffer. To regenerate and repeatedly use the chip, the antibodies captured onto the chip were washed off by reacting 10 mM glycine-HCl, pH 1.5.”

FcgRIIIa F [9] = molecular target: T7, FcgRIIIa F; test: SPR (Biacore), antibody captured, FcgR as analyte; remark: listed apart in the source
Procedure: as §4
as §2, with “buffer.” for “buffer. To regenerate and repeatedly use the chip, the antibodies captured onto the chip were washed off by reacting 10 mM glycine-HCl, pH 1.5.”

FcgRIIIa V [10] = molecular target: T8, FcgRIIIa V; test: SPR (Biacore), antibody captured, FcgR as analyte; remark: listed apart in the source
Procedure: as §4
as §2, with “buffer.” for “buffer. To regenerate and repeatedly use the chip, the antibodies captured onto the chip were washed off by reacting 10 mM glycine-HCl, pH 1.5.”

Binder	Kd [1]	Kd [2]	Kd (FcgRIa)	Kd (FcgRIIa R [3])	Kd (FcgRIIa H [4])	Kd (FcgRIIb)	Kd (FcgRIIIa F [5])	Kd (FcgRIIIa V [6])	Kd (FcgRIIa R [7])	Kd (FcgRIIa H [8])	Kd (FcgRIIIa F [9])	Kd (FcgRIIIa V [10])
B1	660 nM	86 nM										
B2	77 nM	16 nM										
B3			0.21 nM	600 nM	350 nM	5000 nM	1.7 nM	0.62 nM				
B4									950 nM	2100 nM	960 nM	340 nM
B5			0.24 nM	380 nM	190 nM	4200 nM	1.2 nM	0.37 nM				
B6			0.27 nM	130 nM	62 nM	1300 nM	1.4 nM	0.43 nM				
B7									450 nM	160 nM	120 nM	14 nM

From patent US20150344570A1 (published 2015)
